Assay results taken from the supplement of paper PMC9112550, “Optimization of the antimicrobial peptide Bac7 by deep mutational scanning” (BMC Biology, 2022).

Tested on: Escherichia coli TOP10
Assay: shrunken log2 fold change of peptide-encoding DNA abundance (4.5 h post-induction vs induction); higher = less antimicrobial activity (less host growth inhibition)
Settings: time post-induction: 4.5 h; library: site-saturation at positions 5, 18, 19, 20
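Note: peptides expressed intracellularly from a pBAD plasmid library in pooled LB shake-flask culture, induced with 0.3% L-arabinose, DNA abundance read by NGS, three biological replicates, DESeq2 with apeglm shrinkage.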

Sequence	shrunken log2 fold change
RRIRERPPRLPRPRPRPPMGPRP	-0.107
RRIRERPPRLPRPRPRPPMSPRP	-0.373
RRIRERPPRLPRPRPRPPNTPRP	-0.284
RRIRERPPRLPRPRPRPPPCPRP	0.0452
RRIRERPPRLPRPRPRPPPHPRP	0.619
RRIRERPPRLPRPRPRPPPKPRP	0.748
RRIRERPPRLPRPRPRPPQKPRP	-0.0624
RRIRERPPRLPRPRPRPPRDPRP	0.226
RRIRERPPRLPRPRPRPPSEPRP	0.156
RRIRERPPRLPRPRPRPPWLPRP	0.488
RRIRERPPRLPRPRPRPPWVPRP	-0.0642
RRIRERPPRLPRPRPRPPYVPRP	-0.524
RRIRERPPRLPRPRPRPPYWPRP	0.0536
RRIRERPPRLPRPRPRPQAPPRP	-0.0683
RRIRERPPRLPRPRPRPQCGPRP	-0.43
RRIRERPPRLPRPRPRPQCMPRP	-0.586
RRIRERPPRLPRPRPRPQDQPRP	0.0272
RRIRERPPRLPRPRPRPQDWPRP	-0.206
RRIRERPPRLPRPRPRPQEWPRP	-0.021
RRIRERPPRLPRPRPRPQFFPRP	-0.0736
RRIRERPPRLPRPRPRPQGNPRP	-0.166
RRIRERPPRLPRPRPRPQHCPRP	-0.23
RRIRERPPRLPRPRPRPQIIPRP	-1.12
RRIRERPPRLPRPRPRPQISPRP	-0.0116
RRIRERPPRLPRPRPRPQLEPRP	-0.0385

Sequence	shrunken log2 fold change
RRIRERPPRLPRPRPRPQMRPRP	0.0123
RRIRERPPRLPRPRPRPQPDPRP	-0.258
RRIRERPPRLPRPRPRPQPRPRP	0.328
RRIRERPPRLPRPRPRPQPTPRP	0.234
RRIRERPPRLPRPRPRPQPYPRP	-0.43
RRIRERPPRLPRPRPRPQRTPRP	-0.233
RRIRERPPRLPRPRPRPQTGPRP	-0.0945
RRIRERPPRLPRPRPRPQVDPRP	-0.211
RRIRERPPRLPRPRPRPQVRPRP	-0.0385
RRIRERPPRLPRPRPRPQWEPRP	-0.0702
RRIRERPPRLPRPRPRPQWIPRP	-0.0767
RRIRERPPRLPRPRPRPQYGPRP	-0.0797
RRIRERPPRLPRPRPRPRASPRP	-0.0261
RRIRERPPRLPRPRPRPRAVPRP	0.264
RRIRERPPRLPRPRPRPRCNPRP	-0.122
RRIRERPPRLPRPRPRPRDMPRP	0.0375
RRIRERPPRLPRPRPRPRDTPRP	-0.0322
RRIRERPPRLPRPRPRPREDPRP	-0.0632
RRIRERPPRLPRPRPRPRFKPRP	0.00602
RRIRERPPRLPRPRPRPRGIPRP	-0.102
RRIRERPPRLPRPRPRPRGSPRP	0.147
RRIRERPPRLPRPRPRPRHTPRP	-0.187
RRIRERPPRLPRPRPRPRHYPRP	-0.462
RRIRERPPRLPRPRPRPRIFPRP	-0.0907
RRIRERPPRLPRPRPRPRPQPRP	0.61

Sequence	shrunken log2 fold change
RRIRERPPRLPRPRPRPRPTPRP	0.35
RRIRERPPRLPRPRPRPRQMPRP	-0.000582
RRIRERPPRLPRPRPRPRQSPRP	-0.0972
RRIRERPPRLPRPRPRPRSCPRP	0.0568
RRIRERPPRLPRPRPRPRSEPRP	-0.0574
RRIRERPPRLPRPRPRPRTSPRP	0.0838
RRIRERPPRLPRPRPRPRVEPRP	-0.182
RRIRERPPRLPRPRPRPSAHPRP	0.131
RRIRERPPRLPRPRPRPSAKPRP	0.0244
RRIRERPPRLPRPRPRPSARPRP	-0.192
RRIRERPPRLPRPRPRPSAVPRP	-0.411
RRIRERPPRLPRPRPRPSCMPRP	-0.416
RRIRERPPRLPRPRPRPSCTPRP	-0.815
RRIRERPPRLPRPRPRPSDIPRP	-0.0101
RRIRERPPRLPRPRPRPSDLPRP	-0.151
RRIRERPPRLPRPRPRPSEMPRP	-0.16
RRIRERPPRLPRPRPRPSEVPRP	-0.12
RRIRERPPRLPRPRPRPSFNPRP	-0.637
RRIRERPPRLPRPRPRPSGCPRP	0.0787
RRIRERPPRLPRPRPRPSGGPRP	-0.0233
RRIRERPPRLPRPRPRPSGLPRP	-0.195
RRIRERPPRLPRPRPRPSGPPRP	-0.203
RRIRERPPRLPRPRPRPSHQPRP	-0.19
RRIRERPPRLPRPRPRPSIHPRP	-0.147
RRIRERPPRLPRPRPRPSKCPRP	-0.488

Sequence	shrunken log2 fold change
RRIRERPPRLPRPRPRPSLNPRP	-0.181
RRIRERPPRLPRPRPRPSMAPRP	-0.192
RRIRERPPRLPRPRPRPSNSPRP	-0.0251
RRIRERPPRLPRPRPRPSPKPRP	0.0298
RRIRERPPRLPRPRPRPSQFPRP	-0.474
RRIRERPPRLPRPRPRPSQPPRP	0.0471
RRIRERPPRLPRPRPRPSRIPRP	-0.234
RRIRERPPRLPRPRPRPSSDPRP	-0.164
RRIRERPPRLPRPRPRPSSKPRP	-0.639
RRIRERPPRLPRPRPRPSSNPRP	-0.0512
RRIRERPPRLPRPRPRPSSRPRP	-0.107
RRIRERPPRLPRPRPRPSTDPRP	-0.332
RRIRERPPRLPRPRPRPSWLPRP	0.177
RRIRERPPRLPRPRPRPSWPPRP	-0.079
RRIRERPPRLPRPRPRPSYLPRP	-1.2
RRIRERPPRLPRPRPRPTACPRP	-0.134
RRIRERPPRLPRPRPRPTADPRP	0.0264
RRIRERPPRLPRPRPRPTAHPRP	0.0481
RRIRERPPRLPRPRPRPTATPRP	0.259
RRIRERPPRLPRPRPRPTCQPRP	0.00216
RRIRERPPRLPRPRPRPTDEPRP	-0.0552
RRIRERPPRLPRPRPRPTDIPRP	-0.0479
RRIRERPPRLPRPRPRPTEEPRP	0.00212
RRIRERPPRLPRPRPRPTFFPRP	0.321
RRIRERPPRLPRPRPRPTGEPRP	-0.0152

Sequence	shrunken log2 fold change
RRIRERPPRLPRPRPRPTGYPRP	-0.0056
RRIRERPPRLPRPRPRPTIEPRP	-0.0577
RRIRERPPRLPRPRPRPTILPRP	-0.0814
RRIRERPPRLPRPRPRPTKAPRP	0.043
RRIRERPPRLPRPRPRPTKEPRP	-0.465
RRIRERPPRLPRPRPRPTKVPRP	0.0356
RRIRERPPRLPRPRPRPTLNPRP	-0.152
RRIRERPPRLPRPRPRPTMPPRP	-0.124
RRIRERPPRLPRPRPRPTNEPRP	-0.676
RRIRERPPRLPRPRPRPTQWPRP	0.00138
RRIRERPPRLPRPRPRPTRAPRP	0.571
RRIRERPPRLPRPRPRPTRDPRP	0.245
RRIRERPPRLPRPRPRPTTDPRP	-0.148
RRIRERPPRLPRPRPRPTTIPRP	-0.627
RRIRERPPRLPRPRPRPTVNPRP	-0.129
RRIRERPPRLPRPRPRPTYPPRP	-1.11
RRIRERPPRLPRPRPRPTYYPRP	-0.614
RRIRERPPRLPRPRPRPVAGPRP	0.246
RRIRERPPRLPRPRPRPVAMPRP	-0.00351
RRIRERPPRLPRPRPRPVANPRP	-0.068
RRIRERPPRLPRPRPRPVARPRP	-0.168
RRIRERPPRLPRPRPRPVCCPRP	-0.163
RRIRERPPRLPRPRPRPVECPRP	-0.152
RRIRERPPRLPRPRPRPVEIPRP	-0.0716
RRIRERPPRLPRPRPRPVEVPRP	-0.209

Sequence	shrunken log2 fold change
RRIRERPPRLPRPRPRPVFPPRP	0.242
RRIRERPPRLPRPRPRPVFRPRP	-0.0125
RRIRERPPRLPRPRPRPVGFPRP	0.0681
RRIRERPPRLPRPRPRPVHDPRP	-0.687
RRIRERPPRLPRPRPRPVKYPRP	-0.0311
RRIRERPPRLPRPRPRPVMMPRP	-0.144
RRIRERPPRLPRPRPRPVNTPRP	-0.34
RRIRERPPRLPRPRPRPVPEPRP	-0.0948
RRIRERPPRLPRPRPRPVPWPRP	0.0881
RRIRERPPRLPRPRPRPVRHPRP	0.131
RRIRERPPRLPRPRPRPVRLPRP	0.0832
RRIRERPPRLPRPRPRPVRNPRP	-0.41
RRIRERPPRLPRPRPRPVSFPRP	-0.0647
RRIRERPPRLPRPRPRPVSKPRP	-0.201
RRIRERPPRLPRPRPRPVTNPRP	-0.0383
RRIRERPPRLPRPRPRPVVDPRP	0.0306
RRIRERPPRLPRPRPRPVVVPRP	-0.112
RRIRERPPRLPRPRPRPVWFPRP	-0.0467
RRIRERPPRLPRPRPRPVYDPRP	-0.0514
RRIRERPPRLPRPRPRPVYFPRP	-0.207
RRIRERPPRLPRPRPRPWACPRP	0.0618
RRIRERPPRLPRPRPRPWCPPRP	-0.758
RRIRERPPRLPRPRPRPWCRPRP	-0.126
RRIRERPPRLPRPRPRPWDLPRP	-0.164
RRIRERPPRLPRPRPRPWDWPRP	0.0223
